Measured values: article PMC5207708

What was measured:
MIER3 isoform 1 = MIER3 isoform 1 (UniProt Q7Z3K6); test: co-IP; HEK293 cells transfected with the myc-tagged protein; lysis in 1% Triton X-100, 150 mM NaCl, 20 mM Tris-Cl pH 7.5, 1 mM EDTA; IP with 9E10 anti-myc overnight at 4°C; endogenous HDAC1 and HDAC2 by Western; band densitometry (HDAC:MIER ratio); also with or without 12.5 μM Ins(1,4,5,6)P4 during the IP (no substantial difference)
MIER2 = MIER2 (UniProt Q8N344); test: as above
UniProt Q8N344, sequence (Q8N344 whole entry): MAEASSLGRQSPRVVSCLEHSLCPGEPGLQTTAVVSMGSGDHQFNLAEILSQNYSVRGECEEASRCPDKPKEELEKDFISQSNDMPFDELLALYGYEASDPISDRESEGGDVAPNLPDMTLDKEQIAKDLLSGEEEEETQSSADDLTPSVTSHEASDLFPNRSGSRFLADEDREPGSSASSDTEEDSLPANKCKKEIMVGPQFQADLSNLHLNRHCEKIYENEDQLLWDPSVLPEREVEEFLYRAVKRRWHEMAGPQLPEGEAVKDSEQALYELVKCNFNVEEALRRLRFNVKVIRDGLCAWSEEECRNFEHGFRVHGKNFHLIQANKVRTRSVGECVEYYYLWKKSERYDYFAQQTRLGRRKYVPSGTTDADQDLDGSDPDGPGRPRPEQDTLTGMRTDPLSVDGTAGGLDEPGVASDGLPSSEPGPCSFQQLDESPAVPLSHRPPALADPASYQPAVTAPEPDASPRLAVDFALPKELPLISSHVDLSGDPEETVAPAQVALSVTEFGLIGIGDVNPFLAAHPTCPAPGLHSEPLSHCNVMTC

UniProt Q7Z3K6, sequence (Q7Z3K6 whole entry, canonical isoform): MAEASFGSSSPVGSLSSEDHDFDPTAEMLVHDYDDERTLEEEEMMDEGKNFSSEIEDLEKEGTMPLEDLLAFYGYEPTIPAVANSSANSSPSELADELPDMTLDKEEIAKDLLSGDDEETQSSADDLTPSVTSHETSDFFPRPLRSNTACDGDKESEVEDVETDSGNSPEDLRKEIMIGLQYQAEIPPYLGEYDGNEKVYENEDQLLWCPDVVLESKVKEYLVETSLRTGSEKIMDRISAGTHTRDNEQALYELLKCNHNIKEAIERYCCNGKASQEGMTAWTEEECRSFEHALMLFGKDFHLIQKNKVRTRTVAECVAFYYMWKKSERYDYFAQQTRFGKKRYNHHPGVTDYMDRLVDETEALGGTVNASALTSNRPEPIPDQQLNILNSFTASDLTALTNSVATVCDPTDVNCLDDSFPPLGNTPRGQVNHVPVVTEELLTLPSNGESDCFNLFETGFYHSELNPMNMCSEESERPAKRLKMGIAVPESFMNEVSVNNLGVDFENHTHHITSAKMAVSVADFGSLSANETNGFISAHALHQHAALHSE

HDAC:MIER ratio in the immunoprecipitate, percent of that in the MIER1α complex (MIER3 isoform 1) [%]	HDAC:MIER ratio in the immunoprecipitate, percent of that in the MIER1α complex (MIER2) [%]	Substance
9	–	HDAC1 (from UniProt Q13547 1-482) (HEK293 cells)
–	20	HDAC2 (from UniProt Q92769 1-488) (enzyme)
9	–	HDAC2 (from UniProt Q92769 1-488)
